Assay results published in patent US20250262210A1 (TRUSTEES OF COLUMBIA UNIVERSITY IN THE CITY OF NEW YORK, published 2025).

Key:
Assay in all cases: IP/MS, LZTR1 wild type-FLAG, U87
HTT = HTT (human, UniProt P42858 1-3142)
Method in brief: (§1)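 Extracted peptides in 3% acetonitrile/0.1% formic acid ran on a 50 cm C18 column into an Orbitrap Fusion, with MaxQuant identification and spectral counting.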

DPP9 = DPP9 (human, UniProt Q86TI2 2-863, limits assumed)
Method in brief: as §1

SNX14 = target: T1, SNX14 (human, UniProt Q9Y5W7 1-946, limits assumed)
T1 sequence (looked up): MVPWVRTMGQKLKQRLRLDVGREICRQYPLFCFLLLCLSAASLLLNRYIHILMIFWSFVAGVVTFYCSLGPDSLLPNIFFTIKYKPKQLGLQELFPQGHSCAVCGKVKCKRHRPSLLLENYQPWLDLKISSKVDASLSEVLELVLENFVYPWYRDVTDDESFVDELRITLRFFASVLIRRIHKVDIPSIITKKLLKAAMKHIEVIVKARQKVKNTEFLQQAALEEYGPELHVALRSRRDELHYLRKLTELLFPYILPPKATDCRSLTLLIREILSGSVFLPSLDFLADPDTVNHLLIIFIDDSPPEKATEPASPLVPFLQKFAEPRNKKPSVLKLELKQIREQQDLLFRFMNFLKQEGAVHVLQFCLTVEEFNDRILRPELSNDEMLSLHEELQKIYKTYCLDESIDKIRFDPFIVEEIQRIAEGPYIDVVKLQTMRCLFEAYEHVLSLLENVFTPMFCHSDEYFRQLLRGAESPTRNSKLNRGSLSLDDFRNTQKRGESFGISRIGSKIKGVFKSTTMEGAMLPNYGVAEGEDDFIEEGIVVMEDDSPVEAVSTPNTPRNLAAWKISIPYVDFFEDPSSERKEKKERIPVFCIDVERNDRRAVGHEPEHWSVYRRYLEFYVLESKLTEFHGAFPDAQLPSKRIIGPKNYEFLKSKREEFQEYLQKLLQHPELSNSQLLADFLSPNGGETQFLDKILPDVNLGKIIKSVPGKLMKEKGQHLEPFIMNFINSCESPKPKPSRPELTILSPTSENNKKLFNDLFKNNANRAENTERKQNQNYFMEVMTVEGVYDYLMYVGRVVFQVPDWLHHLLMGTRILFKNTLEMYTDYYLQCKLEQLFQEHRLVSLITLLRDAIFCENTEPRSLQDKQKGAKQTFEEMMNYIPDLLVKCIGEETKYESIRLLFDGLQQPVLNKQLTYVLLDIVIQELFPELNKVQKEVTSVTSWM
Method in brief: as §1

SPG11 = SPG11 (human, UniProt Q96JI7 1-2443, limits assumed)
Method in brief: as §1

KIF1B = KIF1B (human, UniProt O60333 2-1816, limits assumed)
Method in brief: as §1

PEAK1 = PEAK1 (human, UniProt Q9H792 1-1746)
Method in brief: as §1

Measured: binding result

Sequence of SPG11 (Q96JI7 whole entry): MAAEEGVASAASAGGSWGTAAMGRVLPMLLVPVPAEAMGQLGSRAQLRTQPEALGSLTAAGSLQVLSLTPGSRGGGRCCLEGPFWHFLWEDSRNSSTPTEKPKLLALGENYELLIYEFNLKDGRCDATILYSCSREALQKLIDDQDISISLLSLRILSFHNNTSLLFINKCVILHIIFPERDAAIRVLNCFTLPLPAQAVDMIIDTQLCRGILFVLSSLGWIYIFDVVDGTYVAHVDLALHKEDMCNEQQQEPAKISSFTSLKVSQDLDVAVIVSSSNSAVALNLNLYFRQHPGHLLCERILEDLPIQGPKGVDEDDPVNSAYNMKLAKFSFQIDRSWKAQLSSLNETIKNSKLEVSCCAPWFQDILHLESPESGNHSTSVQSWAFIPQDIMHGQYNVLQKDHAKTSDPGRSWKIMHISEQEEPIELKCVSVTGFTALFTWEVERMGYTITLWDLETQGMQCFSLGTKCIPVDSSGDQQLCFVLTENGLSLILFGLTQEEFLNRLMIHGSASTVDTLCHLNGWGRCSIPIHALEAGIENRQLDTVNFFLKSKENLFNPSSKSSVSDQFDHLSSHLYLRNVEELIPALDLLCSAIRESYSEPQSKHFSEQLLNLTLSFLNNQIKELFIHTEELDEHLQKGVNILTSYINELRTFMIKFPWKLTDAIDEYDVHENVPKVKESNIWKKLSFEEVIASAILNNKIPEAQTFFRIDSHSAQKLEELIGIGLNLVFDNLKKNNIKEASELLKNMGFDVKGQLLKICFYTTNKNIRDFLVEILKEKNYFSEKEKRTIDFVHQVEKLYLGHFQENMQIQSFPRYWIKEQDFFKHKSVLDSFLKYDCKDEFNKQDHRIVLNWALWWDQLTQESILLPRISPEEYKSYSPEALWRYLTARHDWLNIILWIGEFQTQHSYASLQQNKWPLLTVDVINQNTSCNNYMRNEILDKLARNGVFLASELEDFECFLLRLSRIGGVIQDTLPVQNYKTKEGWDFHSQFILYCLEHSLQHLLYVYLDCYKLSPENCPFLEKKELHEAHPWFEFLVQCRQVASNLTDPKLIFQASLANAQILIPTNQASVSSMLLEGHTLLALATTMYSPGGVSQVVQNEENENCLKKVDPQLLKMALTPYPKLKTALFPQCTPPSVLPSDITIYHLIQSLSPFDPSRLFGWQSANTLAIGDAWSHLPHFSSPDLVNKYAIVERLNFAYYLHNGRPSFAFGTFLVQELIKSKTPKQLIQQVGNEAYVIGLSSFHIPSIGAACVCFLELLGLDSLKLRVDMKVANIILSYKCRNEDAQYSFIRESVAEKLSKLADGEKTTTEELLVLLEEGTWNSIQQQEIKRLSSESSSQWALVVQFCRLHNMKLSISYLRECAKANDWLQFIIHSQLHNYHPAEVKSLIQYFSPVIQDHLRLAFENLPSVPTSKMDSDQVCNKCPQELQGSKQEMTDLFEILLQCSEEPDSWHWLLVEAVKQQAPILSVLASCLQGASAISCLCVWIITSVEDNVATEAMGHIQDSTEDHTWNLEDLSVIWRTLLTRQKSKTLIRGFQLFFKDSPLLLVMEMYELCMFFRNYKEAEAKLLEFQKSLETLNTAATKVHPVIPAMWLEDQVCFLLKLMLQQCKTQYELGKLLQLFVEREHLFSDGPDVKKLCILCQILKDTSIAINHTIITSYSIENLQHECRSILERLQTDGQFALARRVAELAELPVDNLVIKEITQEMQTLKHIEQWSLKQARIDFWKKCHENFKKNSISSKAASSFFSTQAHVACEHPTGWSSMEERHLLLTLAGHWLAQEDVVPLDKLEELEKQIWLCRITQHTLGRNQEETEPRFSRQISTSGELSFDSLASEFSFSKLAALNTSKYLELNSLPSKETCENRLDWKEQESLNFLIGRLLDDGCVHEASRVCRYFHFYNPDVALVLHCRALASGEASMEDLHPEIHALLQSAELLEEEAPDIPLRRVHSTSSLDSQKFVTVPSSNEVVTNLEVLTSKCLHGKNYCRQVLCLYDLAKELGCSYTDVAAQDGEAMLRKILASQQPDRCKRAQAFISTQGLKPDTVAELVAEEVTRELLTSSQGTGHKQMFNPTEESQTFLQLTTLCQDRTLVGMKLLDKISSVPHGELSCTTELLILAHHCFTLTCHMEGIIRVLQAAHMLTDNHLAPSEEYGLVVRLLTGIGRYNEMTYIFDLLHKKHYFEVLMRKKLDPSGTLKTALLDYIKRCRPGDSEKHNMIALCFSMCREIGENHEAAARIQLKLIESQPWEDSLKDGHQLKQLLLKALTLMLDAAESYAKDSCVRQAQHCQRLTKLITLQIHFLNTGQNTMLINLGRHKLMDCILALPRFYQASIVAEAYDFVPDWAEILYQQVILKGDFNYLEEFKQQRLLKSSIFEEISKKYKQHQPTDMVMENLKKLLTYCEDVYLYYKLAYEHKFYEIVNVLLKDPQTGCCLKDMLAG
Sequence of PEAK1 (Q9H792 whole entry): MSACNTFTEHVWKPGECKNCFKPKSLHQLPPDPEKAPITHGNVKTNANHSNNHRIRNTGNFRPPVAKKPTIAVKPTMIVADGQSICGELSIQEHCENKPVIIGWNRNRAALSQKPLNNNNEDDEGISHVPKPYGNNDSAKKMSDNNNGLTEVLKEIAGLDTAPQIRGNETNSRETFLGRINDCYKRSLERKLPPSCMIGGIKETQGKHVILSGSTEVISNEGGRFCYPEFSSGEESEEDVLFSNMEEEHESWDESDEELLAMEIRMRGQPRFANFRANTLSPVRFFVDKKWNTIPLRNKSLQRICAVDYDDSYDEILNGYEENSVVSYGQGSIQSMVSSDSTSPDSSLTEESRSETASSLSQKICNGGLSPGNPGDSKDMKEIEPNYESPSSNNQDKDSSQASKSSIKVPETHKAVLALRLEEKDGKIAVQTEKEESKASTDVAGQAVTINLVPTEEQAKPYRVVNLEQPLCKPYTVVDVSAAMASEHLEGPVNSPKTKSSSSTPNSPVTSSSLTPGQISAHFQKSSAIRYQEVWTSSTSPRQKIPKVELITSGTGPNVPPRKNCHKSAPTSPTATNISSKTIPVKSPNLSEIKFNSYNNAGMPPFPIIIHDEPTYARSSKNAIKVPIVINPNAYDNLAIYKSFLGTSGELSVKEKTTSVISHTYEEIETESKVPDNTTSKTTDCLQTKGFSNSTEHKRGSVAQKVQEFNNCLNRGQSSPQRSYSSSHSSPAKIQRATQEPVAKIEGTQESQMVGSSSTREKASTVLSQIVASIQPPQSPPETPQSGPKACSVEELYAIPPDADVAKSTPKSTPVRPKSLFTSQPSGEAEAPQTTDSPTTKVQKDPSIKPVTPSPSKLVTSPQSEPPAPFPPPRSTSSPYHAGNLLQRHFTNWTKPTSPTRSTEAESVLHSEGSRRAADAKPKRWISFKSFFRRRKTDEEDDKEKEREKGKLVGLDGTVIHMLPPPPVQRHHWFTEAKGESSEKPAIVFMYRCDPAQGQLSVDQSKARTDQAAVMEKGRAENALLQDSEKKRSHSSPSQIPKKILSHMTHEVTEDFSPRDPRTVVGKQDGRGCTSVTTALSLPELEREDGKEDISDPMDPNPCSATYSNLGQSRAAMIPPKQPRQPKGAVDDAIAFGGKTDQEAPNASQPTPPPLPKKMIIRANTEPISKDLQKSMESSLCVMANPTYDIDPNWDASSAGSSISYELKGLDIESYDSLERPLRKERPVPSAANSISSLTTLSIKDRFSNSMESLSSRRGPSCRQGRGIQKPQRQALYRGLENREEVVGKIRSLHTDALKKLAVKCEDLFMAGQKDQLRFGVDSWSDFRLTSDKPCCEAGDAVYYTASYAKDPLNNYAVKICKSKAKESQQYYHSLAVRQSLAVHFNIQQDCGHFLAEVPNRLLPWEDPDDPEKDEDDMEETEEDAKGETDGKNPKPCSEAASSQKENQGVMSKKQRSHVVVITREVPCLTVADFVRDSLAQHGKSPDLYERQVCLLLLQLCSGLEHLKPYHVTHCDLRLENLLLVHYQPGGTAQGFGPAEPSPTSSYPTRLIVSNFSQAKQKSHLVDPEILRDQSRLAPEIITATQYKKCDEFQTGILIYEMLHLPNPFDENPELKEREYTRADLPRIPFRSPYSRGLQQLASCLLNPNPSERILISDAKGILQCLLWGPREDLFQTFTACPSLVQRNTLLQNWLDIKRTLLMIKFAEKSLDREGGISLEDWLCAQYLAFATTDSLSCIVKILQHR
Sequence of DPP9 (Q86TI2 2-863 limits assumed): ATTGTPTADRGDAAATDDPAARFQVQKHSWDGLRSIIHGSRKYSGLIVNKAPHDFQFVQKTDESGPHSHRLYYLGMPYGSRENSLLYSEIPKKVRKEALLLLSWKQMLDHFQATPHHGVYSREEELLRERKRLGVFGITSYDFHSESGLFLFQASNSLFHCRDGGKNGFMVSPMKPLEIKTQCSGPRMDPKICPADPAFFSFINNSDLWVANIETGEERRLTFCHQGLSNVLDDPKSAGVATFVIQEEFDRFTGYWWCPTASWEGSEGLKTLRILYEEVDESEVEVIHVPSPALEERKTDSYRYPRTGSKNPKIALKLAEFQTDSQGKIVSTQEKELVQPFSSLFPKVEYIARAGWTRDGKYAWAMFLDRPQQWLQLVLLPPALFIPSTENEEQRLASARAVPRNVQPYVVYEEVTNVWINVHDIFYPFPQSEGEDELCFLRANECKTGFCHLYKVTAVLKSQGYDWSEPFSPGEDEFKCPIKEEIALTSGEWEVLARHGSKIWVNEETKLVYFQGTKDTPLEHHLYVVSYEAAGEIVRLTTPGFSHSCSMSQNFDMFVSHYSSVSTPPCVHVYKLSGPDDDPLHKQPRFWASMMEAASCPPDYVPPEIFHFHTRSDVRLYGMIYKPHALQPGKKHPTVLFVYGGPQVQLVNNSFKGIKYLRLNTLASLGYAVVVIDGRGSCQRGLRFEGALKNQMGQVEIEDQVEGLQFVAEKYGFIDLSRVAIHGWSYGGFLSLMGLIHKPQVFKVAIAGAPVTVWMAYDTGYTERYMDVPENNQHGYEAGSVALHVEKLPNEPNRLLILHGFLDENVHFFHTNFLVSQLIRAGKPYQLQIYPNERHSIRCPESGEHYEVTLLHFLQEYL

B1: LZTR1-FLAG (other, human, UniProt Q8N653 1-840, looked up)
chain: MAGPGSTGGQIGAAALAGGARSKVAPSVDFDHSCSDSVEYLTLNFGPFETVHRWRRLPPCDEFVGARRSKHTVVAYKDAIYVFGGDNGKTMLNDLLRFDVKDCSWCRAFTTGTPPAPRYHHSAVVYGSSMFVFGGYTGDIYSNSNLKNKNDLFEYKFATGQWTEWKIEGRLPVARSAHGATVYSDKLWIFAGYDGNARLNDMWTIGLQDRELTCWEEVAQSGEIPPSCCNFPVAVCRDKMFVFSGQSGAKITNNLFQFEFKDKTWTRIPTEHLLRGSPPPPQRRYGHTMVAFDRHLYVFGGAADNTLPNELHCYDVDFQTWEVVQPSSDSEVGGAEVPERACASEEVPTLTYEERVGFKKSRDVFGLDFGTTSAKQPTQPASELPSGRLFHAAAVISDAMYIFGGTVDNNIRSGEMYRFQFSCYPKCTLHEDYGRLWESRQFCDVEFVLGEKEECVQGHVAIVTARSRWLRRKITQARERLAQKLEQEAAPVPREAPGVAAGGARPPLLHVAIREAEARPFEVLMQFLYTDKIKYPRKGHVEDVLLIMDVYKLALSFQLCRLEQLCRQYIEASVDLQNVLVVCESAARLQLSQLKEHCLNFVVKESHFNQVIMMKEFERLSSPLIVEIVRRKQQPPPRTPLDQPVDIGTSLIQDMKAYLEGAGAEFCDITLLLDGHPRPAHKAILAARSSYFEAMFRSFMPEDGQVNISIGEMVPSRQAFESMLRYIYYGEVNMPPEDSLYLFAAPYYYGFYNNRLQAYCKQNLEMNVTVQNVLQILEAADKTQALDMKRHCLHIIVHQFTKVSKLPTLRSLSQQLLLDIIDSLASHISDKQCAELGADI
notes: Expressed in HEK 293T, HeLa or U87 cells; used as cell lysate; also called LZTR1 wild type-FLAG; LZTR1 WT; not shown: FLAG tag at the C-terminus
binds: all assays above
